# In patent US20050249719:
# Assays:
# [1] = tested on: T1, 33-mer gliadin peptide LQLQPFPQPQLPYPQPQLPYPQPQLPYPQPQPF
# T1 sequence: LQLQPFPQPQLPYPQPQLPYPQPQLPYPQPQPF
# [2] = tested on: T2, gliadin peptide PQPQLPYPQPQLP
# T2 sequence: PQPQLPYPQPQLP
# [3] = tested on: recombinant alpha2-gliadin
# Sequence of barley endoprotease EPB2, mature form (chain, as listed by the source): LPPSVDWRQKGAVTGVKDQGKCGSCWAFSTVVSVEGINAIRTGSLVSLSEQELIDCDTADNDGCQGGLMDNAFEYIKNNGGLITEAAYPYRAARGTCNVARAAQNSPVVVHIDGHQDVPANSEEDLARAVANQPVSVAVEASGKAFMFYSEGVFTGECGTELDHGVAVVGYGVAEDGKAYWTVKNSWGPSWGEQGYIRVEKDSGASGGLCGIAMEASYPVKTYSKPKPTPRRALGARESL
Substance,rate of substrate (33-mer+32-mer) disappearance [1],Kcat/KM [2],competitive proteolysis of the 13-mer and the 33-mer [2],digestion of purified α2-gliadin under acidic conditions [3],time to hydrolyze 10 µM of the 33-mer with 0.1 µM enzyme [1]
"Myxococcus xanthus prolyl endopeptidase (recombinant, expressed in E. coli)",0.43 µM/min (MX PEP),548 mM^-1/s^-1,showed a clear preference for the 13-mer peptide,,
"barley endoprotease EPB2, mature form",,,,efficiently digests purified α2-gliadin,
"Sphingomonas capsulata prolyl endopeptidase (recombinant, expressed in E. coli)",0.07 µM/min (SC PEP),492 mM^-1/s^-1,showed a clear preference for the 13-mer peptide,,required >1 hr to reach a comparable endpoint
